Data from the supplement of paper PMC7125110.
± gives the standard error. Variants at the floor of the assay were thinned out.

B1: glmS ribozyme (parent)
chain: AUAAAAGCGCCAGAACUACAGAAAUGUAGUUGACGAGGAGGAGGUUUAUCGAAUUUUCGGCGGAUGCCUCCAAA

Variants of: B1
Assay: self-cleavage kobs at 2500 uM GlcN6P; higher = faster cleavage; RNA array
Conditions: with glucosamine-6-phosphate
Outline: (§1)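 Using a hybridised Cy3 probe at 37 °C, barcoded ribozyme variants transcribed in situ by E. coli RNA polymerase on sequenced MiSeq chips were monitored across tiles imaged over ~14 h. The flow contained glucosamine-6-phosphate from 40 μM to 10 mM in HEPES/KCl/Mg(OAc)2 buffer. Signals were normalised to baseline and to non-cleaving reference variants before per-tile medians were fit to one- or two-exponential decays to yield kobs. Weighted Michaelis–Menten fits across concentrations gave kcat and KM.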

AUAAAGGCUCCAGAACUACAGAAAUGUAUUUGACGAAGAGGAGGUCUAUCGAAUUCUCGGCGGAUGCCUCCAAA [A6G G9U G29U G37A U46C U56C] and AUAAAAGCGCCAGAACUACAGAAAUGUAGUUGCCGAGGAAGACGUUUAUCGCAUUUUCGGCGGAUGCCUCCAAA [A33C G40A G43C A52C] cannot be ordered by “self-cleavage kobs at 2500 uM GlcN6P” value: under 1e-05 s⁻¹ for the first, under 1e-05 s⁻¹ for the second.

First: AUAAAAGAGCCAGAACUACAGAAAUGUAGUUGACGAAGAGGCGGUUUAUCGAAUUUUCGGCGGAUGCCUCCAAA [C8A G37A A42C]
Second: AUAAAAGCGCCCGAACUACAGAAAUGUAGUAGACGAGGAGGAGGUUCAUCGAAUUUUCGGCGGAUGUCUCCAAA [A12C U31A U47C C67U]
The “self-cleavage kobs at 2500 uM GlcN6P” value of the first is lower: under 1e-05 s⁻¹ for the first, 5.13e-05 ± 2.1e-05 s⁻¹ for the second.

AUAAAAGCGCCAGAACUACAGAAAUGUAGUUUACGAGGAGGAGGUUUAUCGAACUUUCCGCGGAUGCUUCCAAA [G32U U54C G59C C68U] and AUAAAAGCGCCAGAACUACAGAAAUGUAGUUGGCGAGGAGGGGGUUUAUCGGAUUUUCGCCGGAUGCCUCCAAA [A33G A42G A52G G60C] cannot be ordered by “self-cleavage kobs at 2500 uM GlcN6P” value: under 1e-05 s⁻¹ for the first, under 1e-05 s⁻¹ for the second.

AUAAAAACGCCAAAACUACAGAAAUGUAGUUGAUGAGGAGGAGGUUUAUCGAAUUUUCGGCGGAUGCCUCCAAA [G7A G13A C34U] and AUAAAUGCGCCAGAACUACAGAAAUGUAGUUGACGAGGUGCAGGUUUAUCGAAUUUUCGGCGGAUGCCUCCAAA [A6U A39U G41C] cannot be ordered by “self-cleavage kobs at 2500 uM GlcN6P” value: under 1e-05 s⁻¹ for the first, under 1e-05 s⁻¹ for the second.

AUAAAAGCGCCAGUACUACAGAAAUGUAGUUGACGAGGAGGAGGUUUAUAGAGUUUUCGGCGGAUGCCUACAAA [A14U C50A A53G C70A] and AUAAAAGCGCCAGAACUACAGAAAUGUAGUUGACGAGGAGGAGGUUUAUAGAAUUGUCGGCGGAUGCCUACAAA [C50A U56G C70A] are within error of each other in “self-cleavage kobs at 2500 uM GlcN6P” value: 7.44e-05 ± 1.4e-05 s⁻¹ for the first, 8.66e-05 ± 2.8e-05 s⁻¹ for the second.

Going from AUAAAAGCGCCACAACUACAGAAAUGUACUUGACGAGGAGGAGGUUUAUCGAAUAUUCGGCGGAUGCCUCCAAA [G13C G29C U55A] to AUAAAAGCGCCAGUACUACAGAAAUGUAGUUGACGUGGAGGAGGUUUAUCGAAUUUUCGGCGGAUGCCUCUAAA [A14U A36U C71U], the “self-cleavage kobs at 2500 uM GlcN6P” value falls from 8.97e-05 ± 2.5e-05 s⁻¹ to under 1e-05 s⁻¹.

AUAAAAGCGCCAGAACUACAGAAAUGUAGUUGACGAGUAGGAGGCUUAUCGAAUUUACGGCGGAUGCCUCCAAA [G38U U45C U57A] and AUAAACCCGCCAGAACUACAGAAAUGUAGUUGACGAGGAGGAGGUUUAUCGAAUUUUCGGCGAAUGCCUCCAAA [A6C G7C G63A] cannot be ordered by “self-cleavage kobs at 2500 uM GlcN6P” value: under 1e-05 s⁻¹ for the first, under 1e-05 s⁻¹ for the second.

Compared with AUAAAAGGGCCGGAACUACAGAAAUGUAGUUGACGAGGAGGAGGUUUAUCUAAUUUUUGGCGGAUGAUUCCAAA [C8G A12G G51U C58U C67A C68U], AUAAAAGCGCCAGAACUACAGAAAUGUAGUUGACGAGGCGGAGGUUUAUCGAAUUUUCAGCGUAUGCCUCCAAA [A39C G59A G63U] is lower in “self-cleavage kobs at 2500 uM GlcN6P” value: 0.000214 ± 7.9e-05 s⁻¹ for the first, under 1e-05 s⁻¹ for the second.

AUAAAAGCGCCAGAACUACAGAAAUGUAGUUGACGAGGAGGAGGUUUAUUGCAUUUUUGGCGGAUGCCUCCAAA [C50U A52C C58U] and AUAAAAGCGCCAGAACUACAGAAAUGUAGUUGACAAGGAAGAGGUUUAUCGAAUUUUCGGCGGAUUCCUCCAAA [G35A G40A G66U] cannot be ordered by “self-cleavage kobs at 2500 uM GlcN6P” value: under 1e-05 s⁻¹ for the first, under 1e-05 s⁻¹ for the second.

AUAAAAGCGCCGGAACUACAGAAAUGUAGUUGACGAGGCGGAGGUUUAUCUAAUUAUCGGCGGAUGCCUCCAAA [A12G A39C G51U U56A] and AUAAAAGUGCCAGAACUACAGAAAUGUAGUUUAUGAGGAGGAGGUUUAUCGAAUUUUGGGCGGAUGCCUCCAAA [C8U G32U C34U C58G] cannot be ordered by “self-cleavage kobs at 2500 uM GlcN6P” value: under 1e-05 s⁻¹ for the first, under 1e-05 s⁻¹ for the second.

First: AUAAAAGCGCCAGAACUACAGAAAUGUAGUUGACGAGGAGGAUGUUUAUCGAAUUUUCGGCGUAUGCGUCCAAA [G43U G63U C68G]
Second: AUAAAAGCGCCAUAACUACAGAAAUGUAGUUGACGAGGAGGAGGUUGAUCGAAUUUUCGGCGGAUGUCUCCAAA [G13U U47G C67U]
The “self-cleavage kobs at 2500 uM GlcN6P” value of the first is lower: under 1e-05 s⁻¹ for the first, 8.34e-05 ± 2.2e-05 s⁻¹ for the second.

Going from AUAAAAGCGCCUGAACUACAGAAAUGUAGUUGACGAGGAGGAGGUUUAUCGAAUUUUCGGCGGGUGGCUCCAAA [A12U A64G C67G] to AUAAAAGCGCCAGAACUACAGAAAUGUAGUUGACGAGGAGGCGGUUUGUGGAAUUUUCGGAGGAUGCCUUCAAA [A42C A48G C50G C61A C70U], the “self-cleavage kobs at 2500 uM GlcN6P” value falls from 7.12e-05 ± 2.2e-05 s⁻¹ to under 1e-05 s⁻¹.

AUAAAAGCGCCAGAACUACAGAAAUGUAGCUGACGAGGAGGAGGUUUAUCGAAUUUUCGGCGGAGGGCUCCAAA [U30C U65G C67G] and AUAAAAGCGCCAGAACUACAGAAAUGUAGGUGACGAGGAGGAGGUCUAUCGAAUUUUCGGCGGAUGCUUCCAAA [U30G U46C C68U] are within error of each other in “self-cleavage kobs at 2500 uM GlcN6P” value: 0.000128 ± 3.3e-05 s⁻¹ for the first, 8.16e-05 ± 1.7e-05 s⁻¹ for the second.

AUAAAAGCGCCAGAACUACAGAAAUGUACUUGACGAAGAGGACGUUUAUCGAAUUUUCGGCGGAUGCCACCAAA [G29C G37A G43C U69A] and AUAAAAGCGCCAGAACUACAGAAAUGUAGUUGGCGAGGAGGAGGUUAAUCGCAUUUUCGGCGGAUGCCUACAAA [A33G U47A A52C C70A] cannot be ordered by “self-cleavage kobs at 2500 uM GlcN6P” value: under 1e-05 s⁻¹ for the first, under 1e-05 s⁻¹ for the second.

AUAAAAGCGCCAGAACUACAGAAAUGUAGUUGACGAUGAGGAGUUUUAUCGAAAUUUCGGCGGAUGCCUCCAAA [G37U G44U U54A] and AUAAAUGAGCCAGAACUACAGAAAUGUAGUUGACGAGGAGGAGGUUUAUCGAAUUAUCGGCGGAUGCCUCCAAA [A6U C8A U56A] cannot be ordered by “self-cleavage kobs at 2500 uM GlcN6P” value: under 1e-05 s⁻¹ for the first, under 1e-05 s⁻¹ for the second.

AUAAAAACGCCAGAACUACAGAAAUGUAGUUGACGAGCAGGAGGUUUAUCGAAUUUUCGGCGGCUGCCUCCAAA [G7A G38C A64C] and AUAAAAGCGCCAGAACUACAGAAAUGUAGUUGCCGAUGAGGGGUUUUAUCGAAUUUUCGGCGGGUUCCUCCAAA [A33C G37U A42G G44U A64G G66U] cannot be ordered by “self-cleavage kobs at 2500 uM GlcN6P” value: under 1e-05 s⁻¹ for the first, under 1e-05 s⁻¹ for the second.

AUAAAAGCGCCAGAAAUACAGAAAUGUAGUUGACGAGGACGUGGUUUAUCGAAUUUUCGGCGGAUGCCUCCAAA [C16A G40C A42U] and AUAAAAGCGCCGGAACUACAGAAAUGUAGUUGACGAGGAGGAGAUUUAUCGAAUUUUCGGCGGAUGCCUACAAA [A12G G44A C70A] cannot be ordered by “self-cleavage kobs at 2500 uM GlcN6P” value: under 1e-05 s⁻¹ for the first, under 1e-05 s⁻¹ for the second.

Variants of: B1
Assay: self-cleavage kobs at 10000 uM GlcN6P; higher = faster cleavage; RNA array
Conditions: with glucosamine-6-phosphate
Outline: as §1

In order of rising “self-cleavage kobs at 10000 uM GlcN6P” value:
1. AUAAAAGCGCCAGAACUACAGAAAUGUAGCUGACGAGGAGGAGGUUUAUCGAAUUUUCGGCGGAGGGCUCCAAA [U30C U65G C67G]  2.81e-05 ± 1.3e-05 s⁻¹
2. AUAAAAGCGCCAUAACUACAGAAAUGUAGUUGACGAGGAGGAGGUUGAUCGAAUUUUCGGCGGAUGUCUCCAAA [G13U U47G C67U]  4.31e-05 ± 2e-05 s⁻¹
3. AUAAAAGCGCCAGAACUACAGAAAUGUAGGUGACGAGGAGGAGGUCUAUCGAAUUUUCGGCGGAUGCUUCCAAA [U30G U46C C68U]  0.000214 ± 5.2e-05 s⁻¹
